system: Escherichia coli TOP10; test: shrunken log2 fold change of peptide-encoding DNA abundance (4.5 h post-induction vs induction); higher = less antimicrobial activity (less host growth inhibition); conditions: time post-induction: 4.5 h; library: site-saturation at positions 5, 18, 19, 20
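Also: peptides expressed intracellularly from a pBAD plasmid library in pooled LB shake-flask culture, induced with 0.3% L-arabinose, DNA abundance read by NGS, three biological replicates, DESeq2 with apeglm shrinkage.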

In order of falling “shrunken log2 fold change” value:
1. RRIRMRPPRLPRPRPRPEIKPRP  3.3
2. RRIRMRPPRLPRPRPRPPRPPRP  1.75
3. RRIRKRPPRLPRPRPRPDWTPRP  1.54
4. RRIRGRPPRLPRPRPRPMWEPRP  1.3
5. RRIRKRPPRLPRPRPRPTQDPRP  1.3
6. RRIRARPPRLPRPRPRPPPIPRP  1
7. RRIRMRPPRLPRPRPRPESVPRP  0.958
8. RRIRRRPPRLPRPRPRPNKYPRP  0.861
9. RRIRWRPPRLPRPRPRPLMRPRP  0.858
10. RRIRRRPPRLPRPRPRPPKGPRP  0.706
11. RRIRPRPPRLPRPRPRPLRNPRP  0.673
12. RRIRMRPPRLPRPRPRPRRDPRP  0.651
13. RRIRPRPPRLPRPRPRPGPGPRP  0.621
14. RRIRSRPPRLPRPRPRPRDFPRP  0.528
15. RRIRNRPPRLPRPRPRPMTNPRP  0.454
16. RRIRWRPPRLPRPRPRPPVLPRP  0.433
17. RRIRDRPPRLPRPRPRPNDEPRP  0.418
18. RRIRWRPPRLPRPRPRPKWKPRP  0.401
19. RRIRNRPPRLPRPRPRPPGYPRP  0.39
20. RRIRRRPPRLPRPRPRPMLHPRP  0.385
21. RRIRSRPPRLPRPRPRPPVFPRP  0.368
22. RRIRGRPPRLPRPRPRPFDGPRP  0.366
23. RRIRPRPPRLPRPRPRPGAHPRP  0.355
24. RRIRRRPPRLPRPRPRPARTPRP  0.35
25. RRIRQRPPRLPRPRPRPEKDPRP  0.343
26. RRIRERPPRLPRPRPRPAHWPRP  0.339
27. RRIRTRPPRLPRPRPRPTEQPRP  0.303
28. RRIRDRPPRLPRPRPRPSLYPRP  0.266
29. RRIRGRPPRLPRPRPRPQLLPRP  0.253
30. RRIRARPPRLPRPRPRPWDVPRP  0.246
31. RRIRCRPPRLPRPRPRPKERPRP  0.238
32. RRIRVRPPRLPRPRPRPKSWPRP  0.224
33. RRIRARPPRLPRPRPRPVQCPRP  0.22
34. RRIRPRPPRLPRPRPRPMRIPRP  0.189
35. RRIRWRPPRLPRPRPRPAVDPRP  0.174
36. RRIRTRPPRLPRPRPRPTLPPRP  0.149
37. RRIRARPPRLPRPRPRPPCYPRP  0.146
38. RRIRDRPPRLPRPRPRPMKWPRP  0.139
39. RRIRVRPPRLPRPRPRPLENPRP  0.124
40. RRIRVRPPRLPRPRPRPASFPRP  0.115
41. RRIRCRPPRLPRPRPRPDFAPRP  0.115
42. RRIRTRPPRLPRPRPRPAQDPRP  0.111
43. RRIRTRPPRLPRPRPRPRSHPRP  0.109
44. RRIRHRPPRLPRPRPRPAMSPRP  0.0912
45. RRIRKRPPRLPRPRPRPEYKPRP  0.0908
46. RRIRSRPPRLPRPRPRPVADPRP  0.0874
47. RRIRCRPPRLPRPRPRPEPFPRP  0.0621
48. RRIRNRPPRLPRPRPRPTAGPRP  0.0608
49. RRIRFRPPRLPRPRPRPEIKPRP  0.058
50. RRIRDRPPRLPRPRPRPCGPPRP  0.0478
51. RRIRDRPPRLPRPRPRPQCRPRP  0.0338
52. RRIRWRPPRLPRPRPRPRSMPRP  0.0304
53. RRIRQRPPRLPRPRPRPVTGPRP  0.0279
54. RRIRCRPPRLPRPRPRPMKPPRP  0.0236
55. RRIRWRPPRLPRPRPRPQEHPRP  0.0218
56. RRIRERPPRLPRPRPRPCGSPRP  0.0206
57. RRIRWRPPRLPRPRPRPSELPRP  0.0129
58. RRIRVRPPRLPRPRPRPPKQPRP  0.0106
59. RRIRMRPPRLPRPRPRPFNAPRP  0.00535
60. RRIRQRPPRLPRPRPRPSTRPRP  0.00434
61. RRIRRRPPRLPRPRPRPITSPRP  -0.00199
62. RRIRGRPPRLPRPRPRPQEYPRP  -0.00348
63. RRIRVRPPRLPRPRPRPEGTPRP  -0.00568
64. RRIRSRPPRLPRPRPRPYLRPRP  -0.00709
65. RRIRERPPRLPRPRPRPIFRPRP  -0.00741
66. RRIRQRPPRLPRPRPRPDTFPRP  -0.00762
67. RRIRHRPPRLPRPRPRPWMSPRP  -0.0135
68. RRIRHRPPRLPRPRPRPFFGPRP  -0.0142
69. RRIRRRPPRLPRPRPRPQKMPRP  -0.02
70. RRIRLRPPRLPRPRPRPDCLPRP  -0.0212
71. RRIRQRPPRLPRPRPRPFMSPRP  -0.0241
72. RRIRHRPPRLPRPRPRPLGAPRP  -0.0242
73. RRIRERPPRLPRPRPRPYGEPRP  -0.0274
74. RRIRMRPPRLPRPRPRPCLLPRP  -0.0289
75. RRIRFRPPRLPRPRPRPWQIPRP  -0.0302
76. RRIRVRPPRLPRPRPRPICVPRP  -0.0314
77. RRIRQRPPRLPRPRPRPDLFPRP  -0.0321
78. RRIRNRPPRLPRPRPRPHWVPRP  -0.0512
79. RRIRQRPPRLPRPRPRPYEAPRP  -0.0514
80. RRIRHRPPRLPRPRPRPDTDPRP  -0.0683
81. RRIRFRPPRLPRPRPRPEWVPRP  -0.0753
82. RRIRKRPPRLPRPRPRPMVHPRP  -0.079
83. RRIRIRPPRLPRPRPRPGERPRP  -0.0896
84. RRIRIRPPRLPRPRPRPQASPRP  -0.0941
85. RRIRFRPPRLPRPRPRPCDKPRP  -0.0972
86. RRIRHRPPRLPRPRPRPRCIPRP  -0.0991
87. RRIRLRPPRLPRPRPRPCVSPRP  -0.108
88. RRIRFRPPRLPRPRPRPFKAPRP  -0.11
89. RRIRKRPPRLPRPRPRPSKWPRP  -0.119
90. RRIRMRPPRLPRPRPRPCIEPRP  -0.122
91. RRIRYRPPRLPRPRPRPQRGPRP  -0.123
92. RRIRSRPPRLPRPRPRPCQWPRP  -0.134
93. RRIRWRPPRLPRPRPRPGFKPRP  -0.143
94. RRIRDRPPRLPRPRPRPCYCPRP  -0.148
95. RRIRARPPRLPRPRPRPSMPPRP  -0.176
96. RRIRLRPPRLPRPRPRPVKNPRP  -0.176
97. RRIRKRPPRLPRPRPRPRCIPRP  -0.187
98. RRIRNRPPRLPRPRPRPNHRPRP  -0.216
99. RRIRCRPPRLPRPRPRPMNWPRP  -0.217
100. RRIRSRPPRLPRPRPRPCQIPRP  -0.231
101. RRIRIRPPRLPRPRPRPFETPRP  -0.231
102. RRIRPRPPRLPRPRPRPCLHPRP  -0.248
103. RRIRIRPPRLPRPRPRPQPFPRP  -0.264
104. RRIRERPPRLPRPRPRPMYDPRP  -0.266
105. RRIRYRPPRLPRPRPRPMYYPRP  -0.269
106. RRIRERPPRLPRPRPRPYNWPRP  -0.276
107. RRIRTRPPRLPRPRPRPHHIPRP  -0.278
108. RRIRFRPPRLPRPRPRPYVCPRP  -0.301
109. RRIRTRPPRLPRPRPRPCRQPRP  -0.303
110. RRIRERPPRLPRPRPRPFITPRP  -0.314
111. RRIRERPPRLPRPRPRPCYRPRP  -0.357
112. RRIRQRPPRLPRPRPRPQHIPRP  -0.357
113. RRIRIRPPRLPRPRPRPIFMPRP  -0.376
114. RRIRNRPPRLPRPRPRPIVPPRP  -0.382
115. RRIRWRPPRLPRPRPRPLNKPRP  -0.397
116. RRIRMRPPRLPRPRPRPIIQPRP  -0.402
117. RRIRNRPPRLPRPRPRPKVYPRP  -0.406
118. RRIRYRPPRLPRPRPRPFCYPRP  -0.432
119. RRIRCRPPRLPRPRPRPNNGPRP  -0.451
120. RRIRNRPPRLPRPRPRPSFLPRP  -0.473
121. RRIRKRPPRLPRPRPRPDKMPRP  -0.48
122. RRIRIRPPRLPRPRPRPMHFPRP  -0.487
123. RRIRHRPPRLPRPRPRPVLHPRP  -0.501
124. RRIRSRPPRLPRPRPRPLIYPRP  -0.546
125. RRIRVRPPRLPRPRPRPIHNPRP  -0.554

From the supplement of paper PMC9112550, “Optimization of the antimicrobial peptide Bac7 by deep mutational scanning” (BMC Biology, 2022)
